Assay results: patent US20200096514

Columns and labels:
[1] = system: PEG-PPQ5 fluorogenic nanosensor (PPQ5 peptide on PEG-8 40 kDa scaffold)
[2] = system: ELA-Q
[3] = system: LAS-Q

recombinant human MMP13
in vitro cleavage (fluorescent dequenching) [1]: PEG-PPQ5 pre- and post-aerosolization was equally sensitive to in vitro cleavage by recombinant MMP13

recombinant mouse MMP1
reversal of FRET-quenched fluorescent signal (cleavage) [2]: Both substrates resist cleavage by MMPI, MMP13, and thrombin | reversal of FRET-quenched fluorescent signal (cleavage) [3]: Both substrates resist cleavage by MMPI, MMP13, and thrombin

recombinant mouse MMP13
reversal of FRET-quenched fluorescent signal (cleavage) [2]: Both substrates resist cleavage by MMPI, MMP13, and thrombin | reversal of FRET-quenched fluorescent signal (cleavage) [3]: Both substrates resist cleavage by MMPI, MMP13, and thrombin

recombinant mouse thrombin
reversal of FRET-quenched fluorescent signal (cleavage) [2]: Both substrates resist cleavage by MMPI, MMP13, and thrombin | reversal of FRET-quenched fluorescent signal (cleavage) [3]: Both substrates resist cleavage by MMPI, MMP13, and thrombin
